Data reported in PMC2588538, “Structure of Reovirus σ1 in Complex with Its Receptor Junctional Adhesion Molecule-A” (PLoS Pathogens, 2008).

B1: D1 domain of human junctional adhesion molecule-A (hJAM-A D1; residues 28–129) (domain or fragment)
chain: GSSVTVHSSEPEVRIPENNPVKLSCAYSGFSSPRVEWKFDQGDTTRLVCYNNKITASYEDRVTFLPTGITFKSVTREDTGTYTCMVSEEGGNSYGEVKVKLIVL
notes: two non-native residues left at the N-terminus after removal of GST, numbered Gly26 and Ser27; human junctional adhesion molecule-A, membrane-distal D1 domain, residues 28-129; Homodimer in solution at neutral pH; also called wt D1; source: E. coli BL21 (DE3) pLysS, purified (GSTrap, on-column thrombin cleavage, SEC); not shown: GST, N-terminal, cleaved
B2: reovirus type 3 Dearing (T3D) σ1 fragment comprising the head domain and one β-spiral of the tail (σ1H; residues 293–455) (domain or fragment)
chain: GSSPNLRYPIADVSGGIGMSPNYRFRQSMWIGIVSYSGSGLNWRVQVNSDIFIVDDYIHICLPAFDGFSIADGGDLSLNFVTGLLPPLLTGDTEPAFHNDVVTYGAQTVAIGLSSGGAPQYMSKNLWVEQWQDGVLRLRVEGGGSITHSNSKWPAMTVSYPRSFT
notes: two non-native residues left at the N-terminus after removal of GST, numbered Gly291 and Ser292; reovirus attachment protein σ1, strain type 3 Dearing (T3D), residues 293-455 (head domain and one β-spiral of the tail); Trimer in the crystal; also called T3D σ1 head domain; not shown: GST, N-terminal, cleaved

How the values were obtained:
CAR (Homo sapiens) = CAR (Homo sapiens) (UniProt P78310); conditions: cited from earlier work
[1] = molecular target: the molecule itself; test: AUC; sedimentation velocity, 50 krpm, 25°C, 20 mM Tris pH 7.5, 100 mM NaCl; five concentrations 0.06 to 1.31 mg/mL; interference optics
[2] = molecular target: the molecule itself; test: AUC; sedimentation equilibrium, 17.5/25/35 krpm, 25°C, 20 mM Tris pH 7.5, 100 mM NaCl; four concentrations 0.16 to 1.6 mg/mL; monomer-dimer model with variable amounts of tetramer; dimer to monomers
[3] = molecular target: B2; test: crystal structure; σ1H-D1 complex, 3.4 Å, space group P2_(1)2_(1)2; crystals from 0.1 M CHES pH 9.5, polyethylene glycol 3350, 20°C; two σ1H trimers each with three D1 monomers in the asymmetric unit; conditions: both partners purified
[4] = molecular target: the molecule itself; test: as above

For CAR (from UniProt P78310), the Kd (CAR (Homo sapiens)) is given as 16 µM.

With B1 the “stoichiometry N” value [1] was 2, the Kd [2] was 11 µM and the binding result [3] was “binds”.

For B2, the “stoichiometry N” value [4] was 3.
